From patent publication US20210087281A1 (AGOMAB THERAPEUTICS, published 2021)

Key:
[1] = target: T1, native mouse MET on living cells (mouse, UniProt P16056 25-1379); experiment: cell-based or functional assay
[2] = target: T2, native human MET on living cells (human, UniProt P08581 25-1390); experiment: cell-based or functional assay
[3] = target: T1, native mouse MET on living cells; experiment: cell-based or functional assay; remark: listed apart in the source
[4] = target: T2, native human MET on living cells; experiment: cell-based or functional assay; remark: listed apart in the source
[5] = target: T1, native mouse MET on living cells; experiment: cell-based or functional assay; remark: listed apart in the source
[6] = target: T2, native human MET on living cells; experiment: cell-based or functional assay; remark: listed apart in the source
[7] = target: T3, mouse MET-Fc (R&D Systems) (mouse, UniProt P16056 25-929, limits assumed); experiment: competition ELISA, mMET-Fc in solid phase, competitor 0.3 nM biotinylated mHGF
T3 construct: bought chimeric protein; also called mMET; not shown: Fc part
Summary of the method: (§1)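 Values are IC₅₀, the antibody level reaching half-maximal competition, and IMAX, the highest percent competition at saturation. Each antibody was added from 0 to 120 nM alongside HGF labelled at the N-terminus with NHS-LC-biotin, on immobilized MET-Fc.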

[8] = target: human MET ECD mutant D (mutations 1, 2) (human) (UniProt P08581); experiment: ELISA, MET ECD in solid phase, mAb 0-50 nM
[9] = target: human MET ECD mutant E (mutations 2, 3, 4) (human) (UniProt P08581); experiment: ELISA, MET ECD in solid phase, mAb 0-50 nM
[10] = target: human MET ECD mutant H (mutations 2, 4) (human) (UniProt P08581); experiment: ELISA, MET ECD in solid phase, mAb 0-50 nM
[11] = target: human MET ECD mutant A (mutations 1, 2, 3) (human) (UniProt P08581); experiment: ELISA, MET ECD in solid phase, mAb 0-50 nM
[12] = target: T4, human MET-Fc (R&D Systems) (human, UniProt P08581 25-932); experiment: competition ELISA, hMET-Fc in solid phase, competitor 0.3 nM biotinylated hHGF
T4 construct: extracellular domain; bought chimeric protein; also called hMET; not shown: Fc portion of human IgG1
Summary of the method: as §1

[13] = target: T1, native mouse MET on living cells; experiment: flow cytometry, MLP29 cells
Summary of the method: (§2)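 Detection used a phycoerythrin-labelled anti-human IgG1 secondary and flow cytometry, measuring binding of chimeric antibodies to native MET on live A549 (human) or MLP29 (mouse) cells. Positive controls were a mouse anti-human MET and a goat anti-mouse MET antibody, each with a PE-labelled secondary.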

[14] = target: T1, native mouse MET on living cells; experiment: cell-based or functional assay; remark: listed apart in the source
[15] = target: T2, native human MET on living cells; experiment: cell-based or functional assay; remark: listed apart in the source
[16] = target: T5, human MET ECD (human, UniProt P08581 25-932); experiment: ELISA, MET ECD in solid phase, mAb 0-20 nM
T5 construct: range 1-932; recombinant ECD made by the applicants; the stated range begins at residue 1, so it includes the signal peptide of the entry; also called hMET; hMET ECD
Summary of the method: (§3)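 First, chimeric IgG1 (llama variable, human constant) was produced transiently in mammalian cells. Next, it was purified on protein A. Finally, graded antibody concentrations in solution were applied to plate-bound MET ECD and binding was read by ELISA.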

[17] = target: T6, mouse MET ECD (mouse, UniProt P16056 25-931); experiment: ELISA, MET ECD in solid phase, mAb 0-20 nM
T6 construct: range 1-931; recombinant ECD made by the applicants; the stated range begins at residue 1; also called mMET; mMET ECD
Summary of the method: as §3

[18] = target: T2, native human MET on living cells; experiment: flow cytometry, A549 cells
Summary of the method: as §2

[19] = target: T5, human MET ECD; experiment: ELISA, MET ECD in solid phase, mAb 0-50 nM
Procedure: Using human MET as a template, we mutagenized each of these residues in different permutations, generating a series of MET mutants that are fully human except for specific residues, which are llama. Next, we tested the affinity of selected SEMA-binding mAbs (71D6, 71C3, 71D4, 71A3, 71G2) and PSI-binding mAbs (76H10 and 71G3) for these MET mutants by ELISA. To this end, the various MET proteins were immobilized in solid phase (100 ng/well in a 96-well plate) and then exposed to increasing concentrations of antibodies (0-50 nM) solution. […] Wild-type human MET was used as positive control.
TABLE 18 The epitopes of MET responsible for agonistic antibody binding represent residues conserved among H. sapiens, M. musculus, R. norvegicus, M. fascicularis but not among the same species and L. glama. The relevance of residues conserved among human, mouse, rat, cynomolgus monkey but not llama MET for binding to agonistic mAbs was tested by ELISA. Wild-type (WT) or mutant (MT) human MET ECD was immobilized in solid phase and exposed to increasing concentrations of mAbs in solution. […] All binding values were normalized to the WT protein and are expressed as % binding (EMAX) compared to WT MET.

T2 sequence (P08581 25-1390): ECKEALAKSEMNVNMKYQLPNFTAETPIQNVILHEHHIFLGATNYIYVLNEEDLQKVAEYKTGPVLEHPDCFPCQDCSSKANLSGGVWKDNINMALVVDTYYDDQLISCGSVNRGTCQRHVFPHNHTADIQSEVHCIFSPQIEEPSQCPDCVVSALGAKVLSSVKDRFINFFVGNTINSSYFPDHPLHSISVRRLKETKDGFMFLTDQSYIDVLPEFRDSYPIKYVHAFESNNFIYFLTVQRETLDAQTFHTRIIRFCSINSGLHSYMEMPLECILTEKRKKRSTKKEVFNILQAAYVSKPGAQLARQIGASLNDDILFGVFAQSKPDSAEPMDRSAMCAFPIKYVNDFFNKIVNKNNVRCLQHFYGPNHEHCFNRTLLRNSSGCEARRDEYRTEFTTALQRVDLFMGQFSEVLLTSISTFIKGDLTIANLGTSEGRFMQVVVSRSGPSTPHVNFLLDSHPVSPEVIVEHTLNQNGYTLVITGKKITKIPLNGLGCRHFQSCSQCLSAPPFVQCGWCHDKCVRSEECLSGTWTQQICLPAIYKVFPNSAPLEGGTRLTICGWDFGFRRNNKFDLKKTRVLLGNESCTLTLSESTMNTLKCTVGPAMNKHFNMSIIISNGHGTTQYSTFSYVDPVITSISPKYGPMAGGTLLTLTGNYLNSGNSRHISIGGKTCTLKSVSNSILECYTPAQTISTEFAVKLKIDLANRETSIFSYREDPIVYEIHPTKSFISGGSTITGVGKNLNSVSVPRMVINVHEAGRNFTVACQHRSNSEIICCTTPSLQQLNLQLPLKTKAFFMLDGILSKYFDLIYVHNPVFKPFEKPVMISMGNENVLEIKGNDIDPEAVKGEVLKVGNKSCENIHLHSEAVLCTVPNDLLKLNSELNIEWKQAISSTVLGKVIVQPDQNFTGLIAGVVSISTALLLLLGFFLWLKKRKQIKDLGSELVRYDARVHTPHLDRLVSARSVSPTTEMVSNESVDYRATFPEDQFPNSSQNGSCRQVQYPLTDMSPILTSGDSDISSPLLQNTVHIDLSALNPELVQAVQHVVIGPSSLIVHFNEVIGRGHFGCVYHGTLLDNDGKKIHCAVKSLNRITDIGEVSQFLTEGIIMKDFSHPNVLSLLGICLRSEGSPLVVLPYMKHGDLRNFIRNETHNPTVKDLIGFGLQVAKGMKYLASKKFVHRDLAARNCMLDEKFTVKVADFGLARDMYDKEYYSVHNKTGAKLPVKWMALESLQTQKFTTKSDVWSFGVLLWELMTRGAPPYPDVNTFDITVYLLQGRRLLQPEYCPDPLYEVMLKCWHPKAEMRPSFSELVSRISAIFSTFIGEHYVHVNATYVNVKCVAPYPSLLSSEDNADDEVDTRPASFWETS
T4 sequence (P08581 25-932): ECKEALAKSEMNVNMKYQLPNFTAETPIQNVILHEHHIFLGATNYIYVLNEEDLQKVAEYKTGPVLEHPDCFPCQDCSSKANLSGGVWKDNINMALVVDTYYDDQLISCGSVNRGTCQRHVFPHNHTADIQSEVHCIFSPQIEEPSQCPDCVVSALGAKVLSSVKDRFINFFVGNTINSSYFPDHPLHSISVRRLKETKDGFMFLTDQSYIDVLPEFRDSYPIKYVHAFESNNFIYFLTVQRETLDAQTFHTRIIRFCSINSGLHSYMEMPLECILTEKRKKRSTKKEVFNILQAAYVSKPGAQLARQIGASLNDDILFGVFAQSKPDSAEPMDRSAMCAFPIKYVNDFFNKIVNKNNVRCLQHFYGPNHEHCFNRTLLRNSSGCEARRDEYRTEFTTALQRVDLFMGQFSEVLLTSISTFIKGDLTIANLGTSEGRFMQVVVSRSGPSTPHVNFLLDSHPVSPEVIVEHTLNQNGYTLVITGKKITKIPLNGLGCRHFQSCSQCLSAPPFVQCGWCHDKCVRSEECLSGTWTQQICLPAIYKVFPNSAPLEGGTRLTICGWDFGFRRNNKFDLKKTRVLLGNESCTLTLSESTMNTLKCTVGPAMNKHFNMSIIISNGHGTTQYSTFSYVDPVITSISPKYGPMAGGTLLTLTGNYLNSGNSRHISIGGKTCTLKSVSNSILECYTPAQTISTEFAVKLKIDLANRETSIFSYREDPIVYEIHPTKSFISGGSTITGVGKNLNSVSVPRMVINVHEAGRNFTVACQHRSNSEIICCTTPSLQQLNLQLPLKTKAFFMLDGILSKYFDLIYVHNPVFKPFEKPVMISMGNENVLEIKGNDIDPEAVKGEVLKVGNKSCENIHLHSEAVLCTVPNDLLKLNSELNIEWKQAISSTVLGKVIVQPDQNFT
T5 sequence (P08581 25-932 limits assumed, form in doubt): as the sequence (P08581 25-932) above

B1: 71A3 chimeric llama-human IgG1 mAb (antibody, V domains shown)
VH: EVQLVESGGGLVQPGGSLRLSCAASGFSFKDYDITWVRQAPGKGLEWVSTITSRSGSTSYVDSVKGRFTISGDNAKNTLYLQMNSLKPEDTAVYYCAKVYATTWDVGPLGYGMDYWGKGTLVTVSS
VL: SYELTQPSALSVTLGQTAKITCQGGSLGSSYAHWYQQKPGQAPVLVIYDDDSRPSGIPERFSGSSSGGTATLTISGAQAEDEGDYYCQSADSSGNAAVFGGGTHLTVL
notes: llama VH on human IgG1 CH1-CH2-CH3, llama VL on human lambda CL
[1]
  protection from staurosporine, viability EC50, MLP29 cells: < 0.5 nM
  protection from staurosporine, viability EMAX, MLP29 cells: 70.5%
[2]
  protection from staurosporine, viability EC50, MCF10A cells: < 0.5 nM
  protection from staurosporine, viability EMAX, MCF10A cells: 71.7%
[3]
  phospho-MET ELISA EC50, MLP29 cells: 0.26 nM
  phospho-MET ELISA EMAX (% HGF activity), MLP29 cells: 96%
[4]
  phospho-MET ELISA EC50, A549 cells: 0.31 nM
  phospho-MET ELISA EMAX (% HGF activity), A549 cells: 86.6%
[5]
  scatter score 0-4, MLP29, 0.001 nM: 0 score
  scatter score 0-4, MLP29, 0.004 nM: 0 score
  scatter score 0-4, MLP29, 0.012 nM: 2 score
  scatter score 0-4, MLP29, 0.037 nM: 3 score
  scatter score 0-4, MLP29, 0.111 nM: 3 score
  scatter score 0-4, MLP29, 0.333 nM: 4 score
  scatter score 0-4, MLP29, 1.000 nM: 4 score
  scatter score 0-4, MLP29, 3.000 nM: 4 score
  scatter score 0-4, MLP29, 9.000 nM: 4 score
[6]
  scatter score 0-4, HPAF-II, 0.001 nM: 0 score
  scatter score 0-4, HPAF-II, 0.004 nM: 0 score
  scatter score 0-4, HPAF-II, 0.012 nM: 2 score
  scatter score 0-4, HPAF-II, 0.037 nM: 3 score
  scatter score 0-4, HPAF-II, 0.111 nM: 3 score
  scatter score 0-4, HPAF-II, 0.333 nM: 4 score
  scatter score 0-4, HPAF-II, 1.000 nM: 4 score
  scatter score 0-4, HPAF-II, 3.000 nM: 4 score
  scatter score 0-4, HPAF-II, 9.000 nM: 4 score
[7]
  IC50: 0.54 nM
  IMAX: 87.7%
[8]
  % binding (EMAX) compared to WT MET: 128 % WT MET ECD
[9]
  % binding (EMAX) compared to WT MET: 65.4 % WT MET ECD
[10]
  % binding (EMAX) compared to WT MET: 76.7 % WT MET ECD
[11]
  % binding (EMAX) compared to WT MET: 117 % WT MET ECD
[12]
  IC50: 0.51 nM
  IMAX: 93.4%
[13]
  EC50: 0.811 nM
  EMAX: 144 % relative to control
[14]
  branches per spheroid, MLP29 cells, 0.5 nM: 30.3 branches
  branches per spheroid, MLP29 cells, 2.5 nM: 42 branches
  branches per spheroid, MLP29 cells, 12.5 nM: 42.7 branches
[15]
  branches per spheroid, LOC cells, 0.5 nM: 24 branches
  branches per spheroid, LOC cells, 2.5 nM: 30.3 branches
  branches per spheroid, LOC cells, 12.5 nM: 31.3 branches
[16]
  EC50: 0.229 nM
  EMAX (OD450): 2.4 AU
[17]
  EC50: 0.176 nM
  EMAX (OD450): 2.73 AU
[18]
  EC50: 0.514 nM
  EMAX: 161 % relative to control
[19]
  % binding (EMAX) compared to WT MET: 100 % WT MET ECD

B2: 71G2 chimeric llama-human IgG1 mAb (antibody, V domains shown)
VH: EVQLQESGGGLVQPGGSLRLSCAASGFTFSIYDMSWVRQAPGKGLEWVSTINSDGSSTSYVDSVKGRFTISRDNAKNTLYLQMNSLKPEDTAVYYCAKVYGSTWDVGPMGYGMDYWGKGTLVTVSS
VL: SSALTQPSALSVSLGQTARITCQGGSLGSSYAHWYQQKPGQAPVLVIYGDDSRPSGIPERFSGSSSGGTATLTISGAQAEDEDDYYCQSTDSSGNTVFGGGTRLTVL
notes: as for B1
[1]
  protection from staurosporine, viability EC50, MLP29 cells: 1.99 nM
  protection from staurosporine, viability EMAX, MLP29 cells: 58.3%
[2]
  protection from staurosporine, viability EC50, MCF10A cells: 1.06 nM
  protection from staurosporine, viability EMAX, MCF10A cells: 64.8%
[3]
  phospho-MET ELISA EC50, MLP29 cells: 0.25 nM
  phospho-MET ELISA EMAX (% HGF activity), MLP29 cells: 110%
[4]
  phospho-MET ELISA EC50, A549 cells: 0.37 nM
  phospho-MET ELISA EMAX (% HGF activity), A549 cells: 101%
[5]
  scatter score 0-4, MLP29, 0.001 nM: 0 score
  scatter score 0-4, MLP29, 0.004 nM: 0 score
  scatter score 0-4, MLP29, 0.012 nM: 1 score
  scatter score 0-4, MLP29, 0.037 nM: 2 score
  scatter score 0-4, MLP29, 0.111 nM: 4 score
  scatter score 0-4, MLP29, 0.333 nM: 4 score
  scatter score 0-4, MLP29, 1.000 nM: 4 score
  scatter score 0-4, MLP29, 3.000 nM: 4 score
  scatter score 0-4, MLP29, 9.000 nM: 4 score
[6]
  scatter score 0-4, HPAF-II, 0.001 nM: 0 score
  scatter score 0-4, HPAF-II, 0.004 nM: 1 score
  scatter score 0-4, HPAF-II, 0.012 nM: 2 score
  scatter score 0-4, HPAF-II, 0.037 nM: 3 score
  scatter score 0-4, HPAF-II, 0.111 nM: 4 score
  scatter score 0-4, HPAF-II, 0.333 nM: 4 score
  scatter score 0-4, HPAF-II, 1.000 nM: 4 score
  scatter score 0-4, HPAF-II, 3.000 nM: 4 score
  scatter score 0-4, HPAF-II, 9.000 nM: 4 score
[7]
  IC50: 0.26 nM
  IMAX: 91.9%
[8]
  % binding (EMAX) compared to WT MET: 114 % WT MET ECD
[9]
  % binding (EMAX) compared to WT MET: 41.4 % WT MET ECD
[10]
  % binding (EMAX) compared to WT MET: 40.2 % WT MET ECD
[11]
  % binding (EMAX) compared to WT MET: 92.1 % WT MET ECD
[12]
  IC50: 0.23 nM
  IMAX: 97.8%
[13]
  EC50: 0.688 nM
  EMAX: 130 % relative to control
[14]
  branches per spheroid, MLP29 cells, 0.5 nM: 34 branches
  branches per spheroid, MLP29 cells, 2.5 nM: 46.3 branches
  branches per spheroid, MLP29 cells, 12.5 nM: 45 branches
[15]
  branches per spheroid, LOC cells, 0.5 nM: 25.3 branches
  branches per spheroid, LOC cells, 2.5 nM: 29.3 branches
  branches per spheroid, LOC cells, 12.5 nM: 31.7 branches
[16]
  EC50: 0.112 nM
  EMAX (OD450): 3.09 AU
[17]
  EC50: 0.101 nM
  EMAX (OD450): 3.17 AU
[18]
  EC50: 0.604 nM
  EMAX: 144 % relative to control
[19]
  % binding (EMAX) compared to WT MET: 100 % WT MET ECD
